Assay results published in article PMC8202325.
Values joined by “and” are separate entries in the source; they are usually repeats but may differ in a detail not shown here. Identical values can stand only once.

Biological target: His::PfPLSCR (recombinant full-length Plasmodium falciparum phospholipid scramblase with an N-terminal hexa-histidine affinity tag) (P. falciparum)
Experiment: native gel or EMSA; blue native PAGE (NativePAGE Novex Bis-Tris, G250 additive) of eluted fractions of the main SEC peak; protein purified in 250 mM NaCl, 0.5 mM CaCl2, 1 mM TCEP, 0.1 % FC-12, 25 mM HEPES pH 7.5

With “His::PfPLSCR (recombinant full-length Plasmodium falciparum phospholipid scramblase with an N-terminal hexa-histidine affinity tag) (natural protein)” the stoichiometry N was 2 and 4.
